Results from paper PMC10419011, “Dynamics of the Second Extracellular Loop Control Transducer Coupling of Peptide-Activated GPCRs” (International Journal of Molecular Sciences, 2023).

Target: T1, K^18-TAMRA-NPY (5/6-tetramethylrhodamine (TAMRA) on the side chain of Lys18)
T1 construct: neuropeptide Y (NPY) with a TAMRA-carrying lysine at position 18; also called Tam-labeled NPY; TAMRA-labeled peptide ligand; source: synthetic peptide (Fmoc/tBu solid phase, RP-HPLC, purity > 95%)
Test: fluorescence polarisation; various concentrations of receptor in small DMPC/DHPC bicelles with 50 nM (K^18-TAMRA)-NPY, 1 h at room temperature, measured at 20 °C; sigmoidal dose-response fit
Conditions: both partners purified

Kd: 81.8 ± 5.1 nM
B1: Y2R_A202^45.49C,Δ6Cys-IAP (A202^45.49-P1) (receptor)
chain: MGPIGAEADENQTVEEMKVEQYGPQTTPRGELVPDPEPELIDSTKLIEVQVVLILAYASIILLGVIGNSLVIHVVIKFKSMRTVTNFFIANLAVADLLVNTLALPFTLTYTLMGEWKMGPVLCHLVPYAQGLAVQVSTITLTVIALDRHRAIVYHLESKISKRISFLIIGLAWGISALLASPLAIFREYSLIEIIPDFEIVCCTEKWPGEEKSIYGTVYSLSSLLILYVLPLGIISFSYTRIWSKLKNHVSPGAANDHYHQRRQKTTKMLVSVVVVFAVSWLPLHAFQLAVDIDSQVLDLKEYKLIFTVFHIIAMASTFANPLLYGWMNSNYRKAFLSAFRSEQRLDAIHSEVSVTFKAKKNLEVRKNSGPNDSFTEATNV
modifications: cysteine at position 202 labelled with 3-(2-iodacetamido)-proxyl (IAP), thioether-bound spin label side chain P1
